Experimental findings from publication PMC9355583, “Validation of the solution structure of dimerization domain of PRC1” (PLoS ONE, 2022) are described below.

This data set concerns the molecule itself. Briefly: cross-linking; PEG5 cross-linker (0.1 M-1 M), protein at 20 nM and 50 nM, 50 mM PBS, 50 mM NaCl, pH 7.0, 25 °C, 30 min, read by SDS-PAGE.

B1: PRC1 dimerization domain (PRC1-DD, aa: 1-65) (domain or fragment, human, UniProt O43663-1 1-65, looked up)
chain: MRRSEVLAEESIVCLQKALNHLREIWELIGIPEDQRLQRTEVVKKHIKELLDMMIAEEESLKERL
notes: Protein Regulator of Cytokinesis 1 (PRC1), human, isoform 1 (NP_003972; full length 620 residues), N-terminal dimerization domain, residues 1-65; Cloned between NdeI and XhoI of pET-21a with a C-terminal His-tag; no cleavage of the tag is described; For NMR the protein was 15N- or 15N/13C-labelled; also called DD WT; PRC-DD; source: E. coli BL21 (DE3) or Rosseta (DE3), purified (His-Trap HP, …)
In the case of B1, the “stoichiometry N” value stood at 2.

The stoichiometry N is a count of units in the complex or per binding partner.
